“Also recorded” adds a separate entry of the source. Where a SMILES comes first, the peptide text is derived from it. [ ]: non-standard residue; d: D form. The star is where a group is joined. Biotin = O=C1N[C@H]2[C@H](CS[C@H]2CCCCC(=O)*)N1; NHPr = CCCN*
Columns and labels:
[1] = tested on: human Neural Stem Cells (hNSCs); assay: Live/Dead cell imaging (calcein AM / ethidium homodimer); format: cell-based; settings: cells cultured for 10 days
Method: (§1) In vitro tests were performed following a previously adopted methodology (5). Briefly, cells (at a concentration of 6×10^4 cells/cm^2) were seeded on the top-surface of each assembled scaffold previously assembled into 96 multiwells. Initially, cells were cultured with basal medium supplemented with βFGF (10 ng/ml), added to enhance neuronal progeny differentiation. At 3 days in vitro (DIV), βFGF medium was replaced with Leukemia Inhibitory Factor (LIF, Chemicon) (20 ng/ml) and Brain Derived Neurotrophic Factor (BDNF, Peprotech) (20 ng/ml). Fresh medium was added every three days. Positive and negative controls consisted of CULTREX-BME® substrate (R&D systems) (1:100 dilution in basal medium) and untreated bottom well surfaces respectively.
Live/Dead cell imaging (MolecularProbes) was obtained by incubating cells cultured for 10 days with a staining solution containing 2.0 μM calcein AM and 4.0 μM ethidium homodimer in PBS at 37° C. for 60 min and visualized by inverted fluorescence microscope (Zeiss).

[2] = Macro-scale scaffold formation upon exposure to PBS / neutral pH buffer; format: physicochemical; settings: upon exposure to PBS (1×) / neutral pH buffer
Excerpt: The tested peptides solutions appearance ranged from peptides giving clear liquid is solutions (e.g. 4, B15, B19, B25, B28, 30) to samples which become opaque in 1 to 7 days after dissolution (e.g. B3, B17, B22, B24, B27, 31) as shown in FIG. 2a (I). Most of the liquid solutions increased in viscosity over the first week after dissolution, however after ten days in water no appreciable changes happened at the macroscale.
(§2) Nonetheless, keeping constant the observation time, the storage moduli of peptide solutions previously dissolved (the day before) at 3% w/v were measured. Measurements were obtained of these peptide solutions, further diluted to 1% w/v at the same day of the experiment (unless otherwise specified), and, after addition of PBS, of the formed scaffolds.

[3] = Self-healing tests of assembled scaffolds after mechanical rupture; format: physicochemical; settings: recovery of scaffold stiffness after mechanical rupture
Method: (§3) Rheological properties were determined for the peptides of the invention, using a controlled stress TA Instruments AR-2000ex rheometer (TAInstruments). A cone-and-plate geometry (acrylic cone diameter, 20 mm; angle, 1°; truncation gap 34 μm) was used. All measurements were obtained at a constant monitored temperature of 25° C. Preliminary strain sweeps were performed for each sample to define the linear viscoelastic region, thus ensuring that moduli were independent of strain. Time sweeps, after addition of PBS (1×) were recorded at constant angular frequency (ω=1 Hz). Frequency sweeps, both for peptide water solutions and for self-assembled scaffolds, were performed with the instrument in oscillatory mode at controlled strain of 1%. Final: onset point of rupture was calculated by linear interpolation and subsequent determination of the intersection of the G′ modes in the linear region and at material rupture respectively. G′ values were averaged in the 1-100 Hz region and between n=3 independent replicates. During self-healing tests the self-assembled scaffold was torn by applying a strain sweep (0.01%-1000% strain range) at 1 Hz oscillatory frequency. G′ values were is recorded in frequency sweep mode (at 1% strain) or, in time sweep mode (at 1 Hz and at 1% strain), before and after the strain sweep step, subsequent observations were performed every half hour or, in case of time sweep test, every 30 seconds. In all of the SAPs the difference between the storage moduli measured before and after PBS addition spanned from two to four orders of magnitude, proving the dramatic biomechanical changes taking place during scaffold gelation. Peptide B3 (1%) yielded a solid stiff scaffold (G′=2917 Pa), supporting the idea that ionic charges may screen the electrostatic repulsions given by positively charged lysine residues and speed up the spontaneous ongoing self-assembling process, on its turn giving an already viscous (G′=67 Pa) and opaque solution at day 1. Among the peptides giving soft scaffold (100 Pa-1000 Pa range) peptides 4, B19, B25, B28 and 30 were included. On the opposite side, SAPs yielding solid stiff scaffolds are B15, B22, B24, B27 and 31 (5000 Pa-9000 Pa range).
Solid scaffolds were obtained via addition of PBS (1×) in a cone-and-plate rheometer; we measured the storage modulus, the samples were subjected to a strain sweep (0.01% to 1000%) until and far beyond rupture occurred (i.e. is monitoring the sudden drop of G′ value). Samples were then left in place (keeping them hydrated with PBS) and their G′ were measured every 30 minutes via frequency sweep tests in the range of 0.1 Hz to 60 Hz. As a negative control KLD-12, a well-known SAP, was tested (4, 6). […] In FIG. 6b peptide B25 (3% w/v concentration) was assessed for self-healing in a time sweep mode, every 30 seconds, at 1 Hz and at 1% strain. Values of G′ recovered after 100 minutes (1000 Pa) and steadily plateaued over time. For peptides B3, B22, B25 and B27 full recovery was obtained at different time intervals after rupture, ranging from 60′ to 240′. Similar results were confirmed by multiple independent experiments, but at different time ranges, for all of the self-assembling peptides except for B19 and B28.
Samples were checked for rupture by tilting. After a maximum of four hours all of the samples returned to their solidified gel appearance. This healing could be repeated at will.

[4] = tested on: human Neural Stem Cells (hNSCs); assay: Phase contrast imaging of hNSC morphology on scaffolds; format: cell-based; settings: 7 days in vitro
Method: as §1
(§4) To assess the potential of the proposed SAPs for cell cultures and, more generally, for regenerative medicine, a two-dimensional cell culture protocol already developed for RADA16-I-like peptides was adapted (5). Briefly, human Neural Stem Cells (hNSCs), mechanically dissociated 1 day before plating, were seeded and cultured for one week in vitro over self-assembled scaffolds of B3, 4, B15, B17, B19, B22, B24, B25, B27, B28, 30, 31 and over non-coated tissue culture plastic wells (negative control).

[5] = tested on: human Neural Stem Cells (hNSCs); assay: CellTiter 96 Aqueous Proliferation Assay of hNSCs on self-assembled scaffolds; format: cell-based; settings: 7 DIV, n=6, versus negative control (plastic)
Method: Neural precursor cultures are established and expanded as previously described (15, 16). Human neural stem cells (NSCs) were isolated from the central nervous system, in particular from the diencephalon and the cerebral cortex of human brain 10.5 weeks from conception. The modalities for obtaining the primary tissue are in agreement with the guidelines of the European Network for Transplantation (NECTAR).
as §1
Cell viability was quantified via […] 96® Aqueous Proliferation Assay (Promega, Madison, Wis.) at 7 DIV as recommended in the Promega protocol. After calibrating the linear response between the cell number and absorbance values, proliferated cell populations were quantified (n=6) by using a Vmax microplate reader (Molecular Devices, Sunnyvale, Calif.) at 490 nm wavelength. Values, reported as means±standard error of the mean, were blanked to their respective controls consisting of same substrates and cell culture media without cells.
as §4

[6] = Rheological tests (storage modulus G′, cone-and-plate rheometer); format: physicochemical
Method: as §3
The mechanical properties of the synthesized peptides were tested with a cone-and-plate rheometer. Firstly, the G′ dependence of peptide water solutions on concentration increments, and consequently aggregation kinetics, was assessed as shown in FIG. 2b.
as §2

[7] = Solubility and behaviour on dissolution in water; format: physicochemical
Excerpt: All of the synthesized peptides are soluble at 1% w/v concentration in distilled water and in acid (0.1 M HCl) solutions.

Compound | solid scaffold / hydrogel formation [2] | self-healing property [3] | cell morphology / degree of spreading [4] | living cell population / hNSC viability (CellTiter assay) [5] | self-assembling on dissolution [7] | also measured
C[C@@H](O)[C@H](NC(=O)[C@H](CCCNC(=N)N)NC(=O)[C@@H](NC(=O)[C@H](CO)NC(=O)[C@H](CO)NC(=O)[C@H](Cc1ccccc1)NC(=O)[C@@H]1CCCN1C(=O)CNC(=O)CNC(=O)CNC(=O)CCCC[C@@H]1SC[C@@H]2NC(=O)N[C@@H]21)[C@@H](C)O)C(N)=O [B22] (Biotin-GGGPFSSTRT-NH2) | – | – | – | – | – | live/dead cell imaging [1]: clamped in poorly branched aggregates; also recorded: bipolar cells
Ac-WGGGAFSSTKT-CONH2 (Ac-WGGGAFSSTKT-NH2) [peptide 31] | yielded solid scaffolds | self-healing property has been seen | branched cells | comparable to the biotinilated peptides | – | –
Ac-WGGGPFSSTKT-CONH2 (Ac-WGGGPFSSTKT-NH2) [peptide 4] | yielded solid scaffolds | self-healing property has been seen | – | comparable to the biotinilated peptides | – | –
Biot-GGG(Propylamine)FSSTKT-CONH2 (Biotin-GGG[NHPr]FSSTKT-NH2) [peptide B28] | yielded solid scaffolds | – | proliferated cell clusters | cell population comparable to those of the other peptides | – | minimum necessary peptide concentration for gelation [6]: 3 % w/v
Biot-GGGAFSSTKT-CONH2 (Biotin-GGGAFSSTKT-NH2; SMILES C[C@H](NC(=O)CNC(=O)CNC(=O)CNC(=O)CCCC[C@@H]1SC[C@@H]2NC(=O)N[C@@H]21)C(=O)N[C@@H](Cc1ccccc1)C(=O)N[C@@H](CO)C(=O)N[C@@H](CO)C(=O)N[C@H](C(=O)N[C@@H](CCCCN)C(=O)N[C@H](C(N)=O)[C@@H](C)O)[C@@H](C)O) [B15] | yielded solid scaffolds | self-healing property has been seen | branched cells | biggest living cell populations, significantly different from negative control | – | storage modulus G′ of assembled scaffold (G′ post-assembling) ([6]; after PBS (1×) addition, averaged in 1-100 Hz range, 25° C., B3 at 1%): 8500 Pa
Biot-GGGAFSSTKTGRGD-CONH2 (Biotin-GGGAFSSTKTGRGD-NH2; SMILES C[C@H](NC(=O)CNC(=O)CNC(=O)CNC(=O)CCCC[C@@H]1SC[C@@H]2NC(=O)N[C@@H]21)C(=O)N[C@@H](Cc1ccccc1)C(=O)N[C@@H](CO)C(=O)N[C@@H](CO)C(=O)N[C@H](C(=O)N[C@@H](CCCCN)C(=O)N[C@H](C(=O)NCC(=O)N[C@@H](CCCNC(=N)N)C(=O)NCC(=O)N[C@@H](CC(=O)O)C(N)=O)[C@@H](C)O)[C@@H](C)O) [B19] | yielded solid scaffolds | – | – | significantly different from negative control | – | –
Biot-GGGPFSSTDT-CONH2 (Biotin-GGGPFSSTDT-NH2; SMILES C[C@@H](O)[C@H](NC(=O)[C@H](CC(=O)O)NC(=O)[C@@H](NC(=O)[C@H](CO)NC(=O)[C@H](CO)NC(=O)[C@H](Cc1ccccc1)NC(=O)[C@@H]1CCCN1C(=O)CNC(=O)CNC(=O)CNC(=O)CCCC[C@@H]1SC[C@@H]2NC(=O)N[C@@H]21)[C@@H](C)O)C(N)=O) [B10] | – | – | – | – | immediately self-assembling with dissolution in water | –
Biot-GGGPFSSTET-CONH2 (Biotin-GGGPFSSTET-NH2; SMILES C[C@@H](O)[C@H](NC(=O)[C@H](CCC(=O)O)NC(=O)[C@@H](NC(=O)[C@H](CO)NC(=O)[C@H](CO)NC(=O)[C@H](Cc1ccccc1)NC(=O)[C@@H]1CCCN1C(=O)CNC(=O)CNC(=O)CNC(=O)CCCC[C@@H]1SC[C@@H]2NC(=O)N[C@@H]21)[C@@H](C)O)C(N)=O) [B12] | – | – | – | – | immediately self-assembling with dissolution in water | –
Biot-GGGPFSSTNT-CONH2 (Biotin-GGGPFSSTNT-NH2; SMILES C[C@@H](O)[C@H](NC(=O)[C@H](CC(N)=O)NC(=O)[C@@H](NC(=O)[C@H](CO)NC(=O)[C@H](CO)NC(=O)[C@H](Cc1ccccc1)NC(=O)[C@@H]1CCCN1C(=O)CNC(=O)CNC(=O)CNC(=O)CCCC[C@@H]1SC[C@@H]2NC(=O)N[C@@H]21)[C@@H](C)O)C(N)=O) [B11] | – | – | – | – | immediately self-assembling with dissolution in water | –
Biot-GGGPFSSTQT-CONH2 (Biotin-GGGPFSSTQT-NH2; SMILES C[C@@H](O)[C@H](NC(=O)[C@H](CCC(N)=O)NC(=O)[C@@H](NC(=O)[C@H](CO)NC(=O)[C@H](CO)NC(=O)[C@H](Cc1ccccc1)NC(=O)[C@@H]1CCCN1C(=O)CNC(=O)CNC(=O)CNC(=O)CCCC[C@@H]1SC[C@@H]2NC(=O)N[C@@H]21)[C@@H](C)O)C(N)=O) [B13] | – | – | – | – | immediately self-assembling with dissolution in water | –
